Data as given in patent US20250121075A1, “ALPHA-FETOPROTEIN BIOCONJUGATES FOR DISEASE TREATMENT” (priority 2021, published 2025).

Columns and labels:
[1] = tested on: U937; assay: Cytotoxicity of bioconjugates of varying DPR (Series 1); type: cell-based, human; conditions: Series 1 bioconjugates
Description: (§1) A series of bioconjugates containing DM1, DM3, DM4 or ABZ981 synthesized under varying reaction conditions, resulting in different average DPRs. The cytotoxicity of these bioconjugates were evaluated in vitro in a panel of tumor cell lines (leukemia, breast, colorectal, ovarian and lung).

[2] = tested on: MCF-7; assay: as above; type: cell-based, human
Description: as §1

[3] = tested on: COLO 205; assay: Binding of AF-647 labeled rhAFP (ACT-101) to tumor cells; set-up: species or system human; conditions: COLO 205, metastatic colorectal adenocarcinoma
Description: (§2) Prior to testing lead compounds in vitro, the expression of the AFP receptor and ability of cells to bind and take up fluorescently-labelled rhAFP was established in the U937 cell line as well as other cell lines, as in the study summarized in Table 1 below. In this study, rhAFP was labeled using the procedures described in the product protocol from commercially available Alexa Fluor-647 (AF-647) protein labeling kits. Binding experiments were performed in 96-well plates and fluorescence was measured using a plate reader. Tumor cells were cultured in suspension or plated in cell culture media. Each tumor cell line was incubated with AF-647 labeled rhAFP at 37° C. for 0.5, 2 and 5 hours (n=3 replicates). Incubation was stopped by chilling on ice. For cells in suspension, cells and culture medium were collected separately by centrifugation and subjected to repeat wash steps. For plated cells, trypsin/EDTA was used for cell detachment.

[4] = tested on: SKOV-3; assay: as above; set-up: species or system human; conditions: SKOV-3, ovary adenocarcinoma
Description: as §2

[5] = tested on: U-937; assay: as above; set-up: species or system human; conditions: U-937, histiocytic lymphoma
Description: as §2

[6] = tested on: OVCAR-3; assay: as above; set-up: species or system human; conditions: OVCAR-3, ovary adenocarcinoma; 37° C., 0.5, 2 and 5 hours
Description: as §2

[7] = tested on: MCF7; assay: as above; set-up: species or system human; conditions: MCF7, breast adenocarcinoma
Description: as §2

[8] = tested on: MOLT-4; assay: as above; set-up: species or system human; conditions: MOLT-4, acute lymphoblastic leukemia
Description: as §2

[9] = tested on: H522; assay: as above; set-up: species or system human; conditions: H522, non-small cell lung adenocarcinoma
Description: as §2

[10] = tested on: ovarian cancer organoids; assay: Ovarian cancer organoids from two patients; type: cell-based
[11] = tested on: OV AR3; assay: Cytotoxicity of bioconjugates of varying DPR (Series 2); type: cell-based, human; conditions: Series 2 bioconjugates
Description: as §1

[12] = tested on: SKOV-3; assay: as above; type: cell-based, human; conditions: Series 2 bioconjugates
Description: as §1

[13] = tested on: NCl-H522; assay: as above; type: cell-based, human; conditions: Series 2 bioconjugates
Description: as §1

[14] = tested on: COLO-205; assay: as above; type: cell-based, human; conditions: Series 2 bioconjugates
Description: as §1

B1: HM023-2: Series 1 AFP bioconjugate, toxin printed DME (DM3), DPR 4.8 (conjugate, UniProt P02771 19-609, looked up)
Alpha-fetoprotein: RTLHRNEYGIASILDSYQCTAEISLADLATIFFAQFVQEATYKEVSKMVKDALTAIEKPTGDEQSSGCLENQLPAFLEELCHEKEILEKYGHSDCCSQSEEGRHNCFLAHKKPTPASIPLFQVPEPVTSCEAYEEDRETFMNKFIYEIARRHPFLYAPTILLWAARYDKIIPSCCKAENAVECFQTKAATVTKELRESSLLNQHACAVMKNFGTRTFQAITVTKLSQKFTKVNFTEIQKLVLDVAHVHEHCCRGDVLDCLQDGEKIMSYICSQQDTLSNKITECCKLTTLERGQCIIHAENDEKPEGLSPNLNRFLGDRDFNQFSSGEKNIFLASFVHEYSRRHPQLAVSVILRVAKGYQELLEKCFQTENPLECQDKGEEELQKYIQESQALAKRSCGLFQKLGEYYLQNAFLVAYTKKAPQLTSSELMAITRKMAATAATCCQLSEDKLLACGEGAADIIIGHLCIRHEMTPVNPGVGQCCTSSYANRRPCFSSLVVDETYVPPAFSDDKFIFHKDLCQAQGVALQTMKQEFLINLVKQKPQITEEQLEAVIADFSGLLEKCCQGQEQEVCFAEEGQKLISKTRAALGV
modifications: DM3 maytansinoid toxin conjugate, DPR 4.8
IC50 [1]: 1.6 nM
potency lower than ABZ981 and DM4 conjugates ([2]; MCF-7, Series 1): approximately 3 fold
IC50 ([2]; Series 1 bioconjugates): 4.62 nM

B2: ACT-101 (protein)
chain: RTLHRNEYGIASILDSYQCTAEISLADLATIFFAQFVQEATYKEVSKMVKDALTAIEKPTGDEQSSGCLENQLPAFLEELCHEKEILEKYGHSDCCSQSEEGRHNCFLAHKKPTPASIPLFQVPEPVTSCEAYEEDRETFMNKFIYEIARRHPFLYAPTILLWAARYDKIIPSCCKAENAVECFQTKAATVTKELRESSLLNQHACAVMKNFGTRTFQAITVTKLSQKFTKVQFTEIQKLVLDVAHVHEHCCRGDVLDCLQDGEKIMSYICSQQDTLSNKITECCKLTTLERGQCIIHAENDEKPEGLSPNLNRFLGDRDFNQFSSGEKNIFLASFVHEYSRRHPQLAVSVILRVAKGYQELLEKCFQTENPLECQDKGEEELQKYIQESQALAKRSCGLFQKLGEYYLQNAFLVAYTKKAPQLTSSELMAITRKMAATAATCCQLSEDKLLACGEGAADIIIGHLCIRHEMTPVNPGVGQCCTSSYANRRPCFSSLVVDETYVPPAFSDDKFIFHKDLCQAQGVALQTMKQEFLINLVKQKPQITEEQLEAVIADFSGLLEKCCQGQEQEVCFAEEGQKLISKTRAALGV
Highest AFP binding over 5 h Period [3]: 75.0 ng/million cells
Highest AFP binding over 5 h Period [4]: 31.3 ng/million cells
Highest AFP binding over 5 h Period [5]: 84.3 ng/million cells
Highest AFP binding over 5 h Period [6]: 71.0 ng/million cells
Highest AFP binding over 5 h Period [7]: 126 ng/million cells
Highest AFP binding over 5 h Period [8]: 19.0 ng/million cells
Highest AFP binding over 5 h Period [9]: 71.1 ng/million cells
binding and uptake of fluorescently labeled protein by organoids [10]: bound to and was rapidly taken up
apoptosis, AnnexinV staining ([10]; by 72 hr, even at low concentrations): innocuous to the cells

B3: AH00-3D: Series 2 AFP bioconjugate, toxin printed DME (DM3), DPR 4 (conjugate, UniProt P02771 19-609, looked up)
Alpha-fetoprotein: RTLHRNEYGIASILDSYQCTAEISLADLATIFFAQFVQEATYKEVSKMVKDALTAIEKPTGDEQSSGCLENQLPAFLEELCHEKEILEKYGHSDCCSQSEEGRHNCFLAHKKPTPASIPLFQVPEPVTSCEAYEEDRETFMNKFIYEIARRHPFLYAPTILLWAARYDKIIPSCCKAENAVECFQTKAATVTKELRESSLLNQHACAVMKNFGTRTFQAITVTKLSQKFTKVNFTEIQKLVLDVAHVHEHCCRGDVLDCLQDGEKIMSYICSQQDTLSNKITECCKLTTLERGQCIIHAENDEKPEGLSPNLNRFLGDRDFNQFSSGEKNIFLASFVHEYSRRHPQLAVSVILRVAKGYQELLEKCFQTENPLECQDKGEEELQKYIQESQALAKRSCGLFQKLGEYYLQNAFLVAYTKKAPQLTSSELMAITRKMAATAATCCQLSEDKLLACGEGAADIIIGHLCIRHEMTPVNPGVGQCCTSSYANRRPCFSSLVVDETYVPPAFSDDKFIFHKDLCQAQGVALQTMKQEFLINLVKQKPQITEEQLEAVIADFSGLLEKCCQGQEQEVCFAEEGQKLISKTRAALGV
modifications: DM3 maytansinoid toxin conjugate, DPR 4
IC50 [11]: 5.47 nM
IC50 [12]: 22.8 nM
IC50 [13]: 21.9 nM
IC50 [14]: 10.7 nM
